This sample holds only a part of the variants without activity.
B1: TPR 5TU (parent)
chain: GGAUCUUCUCGAUCUAACAAAAAAGACAAAUCUGCCACAAAGCUUGAGAGCAUCUUCGGAUGCAGAGGCGGCAGCCUUCGGUGGCGCGAUAGCGCCAACGUUCUCAACUAUGACACGCAAAACGCGUGCUCCGUUGAAUGGAGUUUAUCAUG

Variants of: B1
Assay: polymerase ribozyme fitness, log enrichment relative to wild type (log ratio); higher = more active; in vitro selection for triplet polymerase activity
Outline: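 Mutant libraries of each subunit of a heterodimeric triplet polymerase ribozyme were built by PCR and transcribed. Each library went through one round of in vitro selection in triplicate: annealing with biotinylated primer, partner subunit and triplets, frozen incubation at −7 °C, gel excision of extended constructs, streptavidin-bead capture and RT-PCR. Input and output libraries were Illumina-sequenced; only genotypes with ≥10 input reads and ≥1 read per output were kept. Fitness is log2(genotype enrichment/wild-type enrichment), using inverse-variance-weighted replicate averages.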

Row | Variant | polymerase ribozyme fitness (log ratio)
1 | GGAUCUUCUCGAUCUAACAAAAAAGACAAAUCUGCCACAAAGCUUGAGAGCAUCUUCGGAUGCAGAGGCGGCAGCCUUCGGUGGGGCGAUAGCGCCAACGUUCUCAACUAUGACACGCAAAACGCGUACUCCGUUGAAUGGAGUUUAUCAUG [C85G G128A] | ≤ -4.2
2 | GGAUCUUCUCGAUCUAACAAAAAAGACAAAUCUGCCACAAAGCUUGAGAGCAUCUUCGGAUGCAGAGGCGGCAGCCUUCGGUGGUGCGAUAGCGCAAACGUUCUCAACUAUGACACGCAAAACGCGUGCUCCGUUGAAUGGAGUUUAUCAUG [C85U C96A] | -0.931
3 | GGAUCUUCUCGAUCUAACAAAAAAGACAAAUCUGCCACAAAGCUUGAGAGCAUCUUCGGAUGCAGAGGCGGCAGCCUUCGGUGGUGCGAUAGCGCCAACGUUCUCAACUAUGACACGCAAAUCGCGUGCUCCGUUGAAUGGAGUUUAUCAUG [C85U A122U] | -0.795
4 | GGAUCUUCUCGAUCUAACAAAAAAGACAAAUCUGCCACAAAGCUUGAGAGCAUCUUCGGAUGCAGAGGCGGCAGCCUUCGGUGGUGCGAUAGCGACAACGUUCUCAACUAUGACACCCAAAACGCGUGCUCCGUUGAAUGGAGUUUAUCAUG [C85U C95A G117C] | -0.698
5 | GGAUCUUCUCGAUCUAACAAAAAAGACAAAUCUGCCACAAAGCUUGAGAGCAUCUUCGGAUGCAGAGGCGGCAGCCUUCGGUGGUGCGAUAGCGCCAACGUUCUCAACUAUGACACGCAAAACGCGUGCUCCGUUGCAUGGAGUUUAUCAUG [C85U A137C] | -3.1
6 | GGAUCUUCUCGAUCUAACAAAAAAGACAAAUCUGCCACAAAGCUUGAGAGCAUCUUCGGAUGCAGAGGCGGCAGCCUUCGGUGGUGCGAUAGCGCCAACGUUCUCAACUAUGACACGCAAAACGCGUGCUCCGUUGAAUGGUGUUUAUCAUG [C85U A142U] | -0.394
7 | GGAUCUUCUCGAUCUAACAAAAAAGACAAAUCUGCCACAAAGCUUGAGAGCAUCUUCGGAUGCAGAGGCGGCAGCCUUCGGUGGUGCGUUAGCGCCAACGUUCUCAACUAUGACACGCAAAACGCGUGCUCCGUUGAAUGGAGUUUAUCAUG [C85U A89U] | -0.431
8 | GGAUCUUCUCGAUCUAACAAAAAAGACAAAUCUGCCACAAAGCUUGAGAGCAUCUUCGGAUGCAGAGGCGGCAGCCUUCGGUGGUGCGAUAGCGCCAACGUUCUCAACUAUGACACGCAACACGCGUGCUCCGUUGAAUGUAGUUUAUCAUG [C85U A121C G141U] | 2.08
9 | GGAUCUUCUCGAUCUAACAAAAAAGACAAAUCUGCCACAAAGCUUGAGAGCAUCUUCGGAUGCAGAGGCGGCAGCCUUCGGUGGUGCGAUAGCGCCAACGUUCUCGACUAUGACACGCAAAACGCGUGCUCCGUUGAAUGGAGUUUAUCAUG [C85U A106G] | -0.585
10 | GGAUCUUCUCGAUCUAACAAAAAAGACAAAUCUGCCACAAAGCUUGAGAGCAUCUUCGGAUGCAGAGGCGGCAGCCUUCGGUGGUGCGAUAGCGCCAACGUUCUCCACUAUGACACGCAAAACGCGUGCUCCGUUGAAUGGAGUUUAUCAUG [C85U A106C] | -3.33
11 | GGAUCUUCUCGAUCUAACAAAAAAGACAAAUCUGCCACAAAGCUUGAGAGCAUCUUCGGAUGCAGAGGCGGCAGCCUUCGGUGGUGCGAUAGCGCCAACGUUCUCAACUAUGACCCGCAAAACGCGUGCUCCGUUGAAUGGAGUUUAUCAUG [C85U A115C] | -0.617
12 | GGAUCUUCUCGAUCUAACAAAAAAGACAAAUCUGCCACAAAGCUUGAGAGCAUCUUCGGAUGCAGAGGCGGCAGCCUUCGGUGGGGCGAUAGCGCCAACGUUCACAACUAUGACACGCAAAACGCGUGCUCCGUUGAAUGGAGUUUAUCAUG [C85G U104A] | -2.4
13 | GGAUCUUCUCGAUCUAACAAAAAAGACAAAUCUGCCACAAAGCUUGAGAGCAUCUUCGGAUGCAGAGGCGGCAGCCUUCGGUGGGGCGAUAGCGCCAACGUUCCCAACUAUGACACGCAAAACGCGUGCUCCGUUGAAUGGAGUUUAUCAUG [C85G U104C] | -2.69
14 | GGAUCUUCUCGAUCUAACAAAAAAGACAAAUCUGCCACAAAGCUUGAGAGCAUCUUCGGAUGCAGAGGCGGCAGCCUUCGGUGGUGUGAUAGCGCCAACGUUCUCAACUAUGACACGCAAAACGCGUGCUCCGUUGAAUGGAGUUUAUCGUG [C85U C87U A150G] | -1.59
15 | GGAUCUUCUCGAUCUAACAAAAAAGACAAAUCUGCCACAAAGCUUGAGAGCAUCUUCGGAUGCAGAGGCGGCAGCCUUCGGUGGUGCGAUAGCGCCAACGUUCUCAACUAUGACACGCAAAACGCGUGCUCCGUUGAAUGGAGUUUUUCAUG [C85U A147U] | -0.285
16 | GGAUCUUCUCGAUCUAACAAAAAAGACAAAUCUGCCACAAAGCUUGAGAGCAUCUUCGGAUGCAGAGGCGGCAGCCUUCGGUGGGGCGAUAGCGCCAACGUUCUCAACUAUGACACGCAAAACGCGUGCUCCGUUGAAUGUAGUUUAUCAUG [C85G G141U] | -0.649
17 | GGAUCUUCUCGAUCUAACAAAAAAGACAAAUCUGCCACAAAGCUUGAGAGCAUCUUCGGAUGCAGAGGCGGCAGCCUUCGGUGGUGCGAUCGCGCCAACGUUCUCAACUAUGACACGCAAAACGCGUGCUCCGUUGAAUGGAGUUUAUCAUG [C85U A91C] | ≤ -4.2
18 | GGAUCUUCUCGAUCUAACAAAAAAGACAAAUCUGCCACAAAGCUUGAGAGCAUCUUCGGAUGCAGAGGCGGCAGCCUUCGGUGGUGCGAUAGCGCCAAGGUUCUCAACUACGACACGCAAAACGCGUGCUCCGUUGAAUGGGGUUUAUCAUG [C85U C99G U111C A142G] | ≤ -4.2
19 | GGAUCUUCUCGAUCUAACAAAAAAGACAAAUCUGCCACAAAGCUUGAGAGCAUCUUCGGAUGCAGAGGCGGCAGCCUUCGGUGGUGCGAUAGCGACAACGUUCUCAACUAUGACACGCAAAACGCGUGCUCCGUUGAAUGGAGUUUAUCAUG [C85U C95A] | -0.427

Reference: the RNAGym collection of RNA variant scans (doi:10.1073/pnas.2313332121)
